Measured values as given in patent publication US20050147687A1, “Methods for fabrication, uses and compositions of small spherical particles of AAT prepared by controlled phase separation” (priority 2003, published 2005).

Molecular target: porcine pancreatic elastase (PPE) (Sus scrofa, UniProt P00772)
Assay: Inhibition of porcine pancreatic elastase by rAAT (specific activity)
Assay type: biochemical
Description: To determine the specific activity, the rAAT small spherical particles were dissolved in 0.2M Tris-HCl pH 8.0 at room temperature. The resulting solution was analyzed by an assay which measures the capacity of rAAT to inhibit the ability of porcine pancreatic elastase (PPE) to hydrolyze synthetic peptides that contain a p-nitroanilide group at their C-terminus. The same solution of rAAT small spherical particles was then assayed for protein concentration using the Bicinchoninic Acid (BCA) assay. A control rAAT starting material solution was also analyzed in both assays. Because the activity assay was developed to determine the activity based on a concentration of 1 mg/ml protein per sample, the activity value was corrected based on the actual protein concentration as determined by BCA, giving the specific activity value: [formula]

Sequence of porcine pancreatic elastase (PPE) (P00772 27-266): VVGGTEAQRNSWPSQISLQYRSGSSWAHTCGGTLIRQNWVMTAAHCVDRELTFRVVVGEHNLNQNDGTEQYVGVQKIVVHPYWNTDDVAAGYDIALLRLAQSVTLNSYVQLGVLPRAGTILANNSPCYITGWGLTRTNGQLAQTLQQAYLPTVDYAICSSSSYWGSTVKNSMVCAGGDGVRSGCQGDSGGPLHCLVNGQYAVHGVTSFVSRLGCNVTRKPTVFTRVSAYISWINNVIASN

- specific activity, inhibition of porcine pancreatic elastase (scale 100-300 mg (n = 12, column)): 64.34 ± 4.95 IU/mg
- specific activity, inhibition of porcine pancreatic elastase (scale 200-300 mg (n = 8, vessel)): 65.87 ± 0.98 IU/mg
Substance: control rAAT starting material: control solution of recombinant alpha-1-antitrypsin starting material
